Two molecules from patent US8058396B2, “Cystatin C as an antagonist of TGF-β and methods related thereto” (National Jewish Health, priority 2003, dated 2011) can be followed below.

In experiment [1] the test system is TGF-β signaling. The experiment in a line: p3TP-luciferase reporter gene assay in HT1080 cells. Type of experiment: cell-based, human. To be noted: expression in HT1080 cells; TGF-β1 0-5 ng/ml. As to the method:
(§1) Analysis of luciferase activity driven by the synthetic p3TP reporter ((26); generously provided by Dr. Joan Massague, Sloan Kettering) was performed as described previously (42). Briefly, control, CystC-, or Δ14CystC-expressing 3T3-L1 or HT1080 cells were cultured onto 24-well plates at a density of 45,000 cells/well and allowed to adhere overnight. The cells were transiently transfected the following morning by overnight exposure to LT1 liposomes (Mirus) containing 300 ng/well p3TP-luciferase and 100 ng/well of pCMV-β-gal. Afterward, the cells were washed twice with PBS and stimulated overnight in serum-free media with increasing concentrations of TGF-β1 as indicated. The following morning, luciferase and β-gal activities contained in detergent-solubilized cell extracts were determined.
The inventor therefore hypothesized that CystC expression might impact TGF-β signaling via a cathepsin B-dependent mechanism. To test this hypothesis, changes in luciferase expression driven by the synthetic p3TP-luciferase reporter gene (26) were measured in control- and CystC-expressing HT1080 cells. Briefly, GFP-, CystC-, or Δ14CystC-expressing HT0180 cells were transiently transfected with p3TP-luciferase and pCMV-β-gal. The transfectants were stimulated with increasing concentrations of TGF-β1 (0-5 ng/ml) as indicated, and subsequently processed to measure luciferase and β-gal activities. […]
Background: In a reporter assay the amount or activity of a reporter protein is the signal.

Experiment [2] deals with TGF-β signaling. Briefly: p3TP-luciferase reporter gene assay in 3T3-L1 cells. Type of experiment: cell-based, murine. To be noted: expression in 3T3-L1 cells; TGF-β1 0-5 ng/ml; compared to control cells. Here is the method:
as §1
In some experiments, the effects of recombinant CystC and D14CystC on p3TP-luciferase activity 3T3-L1 cells was determined. […] All subsequent procedures were performed as described above.
The present inventor's findings that TGF-β signaling was inhibited by CystC (FIGS. 1 and 2) independent of its actions on cathepsin B lead them to hypothesize CystC as a general antagonist of TGF-β signaling. To test this hypothesis, changes in p3TP-driven luciferase activity were monitored in control, CystC-, Δ14CystC-expressing cells before and after their stimulation with TGF-β. Briefly, GFP-, CystC-, or Δ14CystC-expressing 3T3-L1 cells were transiently transfected with p3TP-luciferase and pCMV-β-gal, and subsequently stimulated with increasing concentrations of TGF-β1 (0-5 ng/ml) as indicated in FIG. 3A. Afterward, luciferase and β-gal activities contained in detergent-solubilized cell extracts were measured. […] Data are the mean (±SE) luciferase activities of four independent experiments normalized to untreated GFP-expressing cells.
The transfectants were then stimulated with TGF-β1 (5 ng/ml) in the absence or presence of recombinant (10 mg/ml) GST, GST-CystC, or GST-D14CystC as indicated in FIG. 3B. […]

In experiment [3] the test system is NMuMG mammary epithelial cells. Briefly: TGF-β-stimulated actin cytoskeletal reorganization (EMT) in NMuMG cells, rhodamine-phalloidin immunofluorescence. To be noted: overexpression in NMuMG cells; TGF-β1 5 ng/ml, 8 hours. It is filed as cell-based, murine. As to the method:
(§2) The ability of TGF-β to alter actin cytoskeletal architecture and E-cadherin expression was monitored essentially as described (Piek et al., 1999). Briefly, control-, CystC-, or Δ14CystC-expressing NMuMG cells were allowed to adhere overnight to glass coverslips in 24-well plates (50,000 cells/well). The cells were stimulated the following day with TGF-β1 (5 ng/ml) for 0-36 hours at 37° C. In some experiments, control NMuMG cells were stimulated with TGF-β1 in the absence or presence of 10 μg/ml of recombinant GST, GST-CystC, or GST-Δ14CystC. Upon completion of agonist stimulation, the cells were washed in ice-cold PBS and immediately fixed in 3.7% formaldehyde. After extensive washing in PBS, the cells were blocked in PBS supplemented with 1.5% FBS, followed by incubation with rhodamine-phalloidin (0.25 μM). […]
(§3) To test this hypothesis, the inventor first examined whether CystC and a CystC mutant impaired in its ability to inhibit cathepsin protease activity (i.e., Δ14CystC) could antagonize TGF-β stimulation of EMT in MECs. […] TGF-β stimulation of EMT is studied routinely in murine NMuMG MECs, which readily undergo EMT when treated with TGF-β (Piek et al., 1999; Miettinen et al., 1994; Gotzmann et al., 2004). […] E-cadherin expression was monitored by indirect immunofluorescence with anti-E-cadherin antibodies.
In another experiment, NMuMG cells were infected with ecotropic retrovirus encoding either GFP (i.e., control), CystC, or Δ14CystC, and subsequently were isolated by FACS-sorting for GFP expression to yield stable polyclonal populations of control, CystC, and Δ14CystC-expressing cells. The expression and secretion of recombinant CystC proteins by infected NMuMG and NRK cells was monitored by immunoblotting conditioned-media with anti-CystC antibodies. […] Next, the control, CystC-, and Δ14CystC-expressing NMuMG cells were incubated in the absence or presence of TGF-β1 (5 ng/ml) for 36 hours, whereupon E-cadherin expression was monitored by immunoblotting with anti-E-Cadherin antibodies. […]

Experiment [4] relates to NMuMG mammary epithelial cells. The experiment in a line: TGF-β-mediated downregulation of E-cadherin in NMuMG cells. Type of experiment: cell-based, murine. To be noted: overexpression in NMuMG cells; TGF-β1 5 ng/ml, 36 hours. As to the method:
as §2
The ability of TGF-β to alter E-cadherin expression also was monitored by immunoprecipitating E-cadherin from Buffer H/1% Triton X-100-solubilized (Schiemann et al., 2003) NMuMG whole cell extracts, followed by immunoblotting with anti-E-cadherin antibodies (1:1000 dilution).
as §3
In another experiment, NMuMG cells were infected with ecotropic retrovirus encoding either GFP (i.e., control), CystC, or Δ14CystC, and subsequently were isolated by FACS-sorting for GFP expression to yield stable polyclonal populations of control, CystC, and Δ14CystC-expressing cells. The expression and secretion of recombinant CystC proteins by infected NMuMG and NRK cells was monitored by immunoblotting conditioned-media with anti-CystC antibodies. […]

The subject of the next experiment is NMuMG cells. Briefly: NMuMG cell invasion through Matrigel matrices. It is filed as cell-based, murine. To be noted: expression in NMuMG cells, 48 hours, p<0.05; for TGF-β1-enhanced NMuMG cell invasion: TGF-β1 5 ng/ml. As to the method:
In another experiment, NMuMG cells were infected with ecotropic retrovirus encoding either GFP (i.e., control), CystC, or Δ14CystC, and subsequently were isolated by FACS-sorting for GFP expression to yield stable polyclonal populations of control, CystC, and Δ14CystC-expressing cells. The expression and secretion of recombinant CystC proteins by infected NMuMG and NRK cells was monitored by immunoblotting conditioned-media with anti-CystC antibodies. The same cells were incubated in the absence or presence of TGF-β1 (5 ng/ml) for 8 hours, whereupon alterations in actin cytoskeletal architecture was visualized by direct rhodamine-phalloidin immunofluorescence. Next, the control, CystC-, and Δ14CystC-expressing NMuMG cells were incubated in the absence or presence of TGF-β1 (5 ng/ml) for 36 hours, whereupon E-cadherin expression was monitored by immunoblotting with anti-E-Cadherin antibodies. Finally, control, CystC-, and Δ14CystC-expressing NMuMG cells were allowed to invade through Matrigel matrices in the absence or presence of TGF-β1 (5 ng/ml) for 48 hours.

B1: CystC: full-length human Cystatin C (SEQ ID NO:2), C-terminally Myc- and (His)6-tagged, retrovirally expressed and secreted by the cells (protein, listed as Homo sapiens)
chain: MAGPLRAPLLLLAILAVALAVSPAAGSSPGKPPRLVGGPMDASVEEEGVRRALDFAVGEYNKASNDMYHSRALQVVRARKQIVAGVNYFLDVELGRTTCTKTQPNLDNCPFHDQPHLKRKAFCSFQIYAVPWQGTMTLSKSTCQDA
modifications: C-terminal Myc and His6 tags
B1: in the experiment with TGF-β signaling [1], the “TGF-β-stimulated luciferase activity driven by the p3TP promoter” value was “significantly inhibited”. The “TGF-β-stimulated luciferase activity (p3TP)” value with TGF-β signaling [2] was “significantly reduced”. For the same molecule, the “actin cytoskeletal reorganization stimulated by TGF-β” value in experiment [3] is given as “prevented”. Further, the “TGF-β-mediated downregulation of E-cadherin” value in experiment [4] is “antagonized”. Besides, in the experiment with NMuMG cells, the “tonic NMuMG cell invasion” value was “significantly inhibited” and the “TGF-β1-enhanced NMuMG cell invasion” value was “inhibited significantly”.

B2: Δ14CystC: human CystC with deletion of positions 80 to 93 (conserved cysteine proteinase inhibitor motif), retrovirally expressed and secreted (protein)
chain: MAGPLRAPLLLLAILAVALAVSPAAGSSPGKPPRLVGGPMDASVEEEGVRRALDFAVGEYNKASNDMYHSRALQVVRARLGRTTCTKTQPNLDNCPFHDQPHLKRKAFCSFQIYAVPWQGTMTLSKSTCQDA
modifications: left off: small tags and cut ends
Regarding B2, the “TGF-β-stimulated luciferase activity driven by the p3TP promoter” value in the experiment with TGF-β signaling [1] is reported as “equally effective as CystC”. In addition, the “TGF-β-stimulated luciferase activity (p3TP)” value in the experiment on TGF-β signaling [2] is “significantly reduced”. In addition, in experiment [3], the “actin cytoskeletal reorganization stimulated by TGF-β” value is reported as “prevented”. In experiment [4], the “TGF-β-mediated downregulation of E-cadherin” value was “antagonized”. In addition, the “TGF-β1-enhanced NMuMG cell invasion” value in the experiment with NMuMG cells was “inhibited significantly”.
